# Test results taken from patent publication US20250339531A1, “DUX4 POLYPEPTIDES AND NUCLEIC ACIDS FOR TREATING INFLAMMATORY AND AUTOIMMUNE CONDITIONS” (Fred Hutchinson Cancer Center, priority 2021, published 2025).
# B1: CKAP4 (protein)
# chain: MPSAKQRGSKGGHGAASPSEKGAHPSGGADDVAKKPPPAPQQPPPPPAPHPQQHPQQHPQNQAHGKGGHRGGGGGGGKSSSSSSASAAAAAAAASSSASCSRRLGRALNFLFYLALVAAAAFSGWCVHHVLEEVQQVRRSHQDFSRQREELGQGLQGVEQKVQSLQATFGTFESILRSSQHKQDLTEKAVKQGESEVSRISEVLQKLQNEILKDLSDGIHVVKDARERDFTSLENTVEERLTELTKSINDNIAIFTEVQKRSQKEINDMKAKVASLEESEGNKQDLKALKEAVKEIQTSAKSREWDMEALRSTLQTMESDIYTEVRELVSLKQEQQAFKEAADTERLALQALTEKLLRSEESVSRLPEEIRRLEEELRQLKSDSHGPKEDGGFRHSEAFEALQQKSQGLDSRLQHVEDGVLSMQVASARQTESLESLLSKSQEHEQRLAALQGRLEGLGSSEADQDGLASTVRSLGETQLVLYGDVEELKRSVGELPSTVESLQKVQEQVHTLLSQDQAQAARLPPQDFLDRLSSLDNLKASVSQVEADLKMLRTAVDSLVAYSVKIETNENNLESAKGLLDDLRNDLDRLFVKVEKIHEKV
# B2: SERPINB3 (protein)
# chain: MNSLSEANTKFMFDLFQQFRKSKENNIFYSPISITSALGMVLLGAKDNTAQQIKKVLHFDQVTENTTGKAATYHVDRSGNVHHQFQKLLTEFNKSTDAYELKIANKLFGEKTYLFLQEYLDAIKKFYQTSVESVDFANAPEESRKKINSWVESQTNEKIKNLIPEGNIGSNTTLVLVNAIYFKGQWEKKFNKEDTKEEKFWPNKNTYKSIQMMRQYTSFHFASLEDVQAKVLEIPYKGKDLSMIVLLPNEIDGLQKLEEKLTAEKLMEWTSLQNMRETRVDLHLPRFKVEESYDLKDTLRTMGMVDIFNGDADLSGMTGSRGLVLSGVLHKAFVEVTEEGAEAAAATAVVGFGSSPTSTNEEFHCNHPFLFFIRQNKTNSILFYGRFSSP
# B3: STAT1 (protein)
# chain: SQWYELQQLDSKFLEQVHQLYDDSFPMEIRQYLAQWLEKQDWEHAANDVSFATIRFHDLLSQLDDQYSRFSLENNFLLQHNIRKSKRNLQDNFQEDPIQMSMIIYSCLKEERKILENAQRFNQAQSGNIQSTVMLDKQKELDSKVRNVKDKVMCIEHEIKSLEDLQDEYDFKCKTLQNREHETNGVAKSDQKQEQLLLKKMYLMLDNKRKEVVHKIIELLNVTELTQNALINDELVEWKRRQQSACIGGPPNACLDQLQNWFTIVAESLQQVRQQLKKLEELEQKYTYEHDPITKNKQVLWDRTFSLFQQLIQSSFVVERQPCMPTHPQRPLVLKTGVQFTVKLRLLVKLQELNYNLKVKVLFDKDVNERNTVKGFRKFNILGTHTKVMNMEESTNGSLAAEFRHLQLKEQKNAGTRTNEGPLIVTEELHSLSFETQLCQPGLVIDLETTSLPVVVISNVSQLPSGWASILWYNMLVAEPRNLSFFLTPPCARWAQLSEVLSWQFSSVTKRGLNVDQLNMLGEKLLGPNASPDGLIPWTRFCKENINDKNFPFWLWIESILELIKKHLLPLWNDGCIMGFISKERERALLKDQQPGTFLLRFSESSREGAITFTWVERSQNGGEPDFHAVEPYTKKELSAVTFPDIIRNYKVMAAENIPENPLKYLYPNIDKDHAFGKYYSRPKEAPEPMELDGPKGTGYIKTELISVSEVHPSRLQTTDNLLPMSPEEFDEVSRIVGSVEFDSMMNTV
# B4: ENDOD1 (protein)
# chain: RLVGEEEAGFGECDKFFYAGTPPAGLAADSHVKICQRAEGAERFATLYSTRDRIPVYSAFRAPRPAPGGAEQRWLVEPQIDDPNSNLEEAINEAEAITSVNSLGSKQALNTDYLDSDYQRGQLYPFSLSSDVQVATFTLTNSAPMTQSFQERWYVNLHSLMDRALTPQCGSGEDLYILTGTVPSDYRVKDKVAVPEFVWLAACCAVPGGGWAMGFVKHTRDSDIIEDVMVKDLQKLLPFNPQLFQNNCGETEQDTEKMKKILEVVNQIQDEERMVQSQKSSSPLSSTRSKRSTLLPPEASEGSSSFLGKLMGFIATPFIKLFQLIYYLVVAILKNIVYFLWCVTKQVINGIESCLYRLGSATISYFMAIGEELVSIPWKVLKVVAKVIRALLRILCCLLKAICRVLSIPVRVLVDVATFPVYTMGAIPIVCKDIALGLGGTVSLLFDTAFGTLGGLFQVVFSVCKRIGYKVTFDNSGEL
# B5: IGF2BP2 (protein)
# chain: MMNKLYIGNLSPAVTADDLRQLFGDRKLPLAGQVLLKSGYAFVDYPDQNWAIRAIETLSGKVELHGKIMEVDYSVSKKLRSRKIQIRNIPPHLQWEVLDGLLAQYGTVENVEQVFAFSLVNTDTETAVVNVTYATREEAKIAMEKLSGHQFENYSFKISYIPDEEVSSPSPPQRAQRGDHSSREQGHAPGGTSQARQIDFPLRILVPTQFVGAIIGKEGLTIKNITKQTQSRVDIHRKENSGAAEKPVTIHATPEGTSEACRMILEIMQKEADETKLAEEIPLKILAHNGLVGRLIGKEGRNLKKIEHETGTKITISSLQDLSIYNPERTITVKGTVEACASAEIEIMKKLREAFENDMLAVNQQANLIPGLNLSALGIFSTGLSVLSPPAGPRGAPPAAPYHPFTTHSGYFSSLYPHHQFGPFPHHHSYPEQEIVNLFIPTQAVGAIIGKKGAHIKQLARFAGASIKIAPAEGPDVSERMVIITGPPEAQFKAQGRIFGKLKEENFFNPKEEVKLEAHIRVPSSTAGRVIGKGGKTVNELQNLTSAEVIVPRDQTPDENEEVIVRIIGHFFASQTAQRKIREIVQQVKQQEQKYPQGVASQRSK
# B6: USP11 (protein)
# chain: MAVAPRLFGGLCFRFRDQNPEVAVEGRLPISHSCVGCRRERTAMATVAANPAAAAAAVAAAAAVTEDREPQHEELPGLDSQWRQIENGESGRERPLRAGESWFLVEKHWYKQWEAYVQGGDQDSSTFPGCINNATLFQDEINWRLKEGLVEGEDYVLLPAAAWHYLVSWYGLEHGQPPIERKVIELPNIQKVEVYPVELLLVRHNDLGKSHTVQFSHTDSIGLVLRTARERFLVEPQEDTRLWAKNSEGSLDRLYDTHITVLDAALETGQLIIMETRKKDGTWPSAQLHVMNNNMSEEDEDFKGQPGICGLTNLGNTCFMNSALQCLSNVPQLTEYFLNNCYLEELNFRNPLGMKGEIAEAYADLVKQAWSGHHRSIVPHVFKNKVGHFASQFLGYQQHDSQELLSFLLDGLHEDLNRVKKKEYVELCDAAGRPDQEVAQEAWQNHKRRNDSVIVDTFHGLFKSTLVCPDCGNVSVTFDPFCYLSVPLPISHKRVLEVFFIPMDPRRKPEQHRLVVPKKGKISDLCVALSKHTGISPERMMVADVFSHRFYKLYQLEEPLSSILDRDDIFVYEVSGRIEAIEGSREDIVVPVYLRERTPARDYNNSYYGLMLFGHPLLVSVPRDRFTWEGLYNVLMYRLSRYVTKPNSDDEDDGDEKEDDEEDKDDVPGPSTGGSLRDPEPEQAGPSSGVTNRCPFLLDNCLGTSQWPPRRRRKQLFTLQTVNSNGTSDRTTSPEEVHAQPYIAIDWEPEMKKRYYDEVEAEGYVKHDCVGYVMKKAPVRLQECIELFTTVETLEKENPWYCPSCKQHQLATKKLDLWMLPEILIIHLKRFSYTKFSREKLDTLVEFPIRDLDFSEFVIQPQNESNPELYKYDLIAVSNHYGGMRDGHYTTFACNKDSGQWHYFDDNSVSPVNENQIESKAAYVLFYQRQDVARRLLSPAGSSGAPASPACSSPPSSEFMDVN
# Tested on: proteins that co-immunoprecipitated with DUX4-CTD constructs expressed in MB135 myoblasts
# Assay: LC-MS of proteins co-immunoprecipitated with DUX4-CTD (Table 1) and western validation
# Format: binding, human
# Design: key to 4. mL1dL2 + Dox + IFNG / 4. + IFNG mix / 4. longCTD + Dox + IFNG / 3. + IFNg + Dox longCTD / 3. + Dox longCTD / 3. + IFNG longCTD: peptide-spectrum matches (PSMs) per protein
# Conditions: LC-MS value per protein co-immunoprecipitated from MB135 myoblasts; + IFNG mix sample (no Dox); kind of count not given
# Text: As an unbiased method to identify proteins that interact with the C-terminal region of DUX4, liquid chromatography mass spectroscopy (LC-MS) was used to identify proteins that co-immunoprecipitated with DUX4-CTD constructs expressed in MB135 myoblasts. In the first experiment, MB135iDUX4-CTD cells were used, either untreated, treated with doxycycline alone, or with both doxycycline and IFNG. In the second experiment, MB135iDUX4-CTD and MB135iDUX4mL1dL2 cells were used, both treated with doxycycline and IFNG, compared to these two cell lines untreated and combined as a control. Proteins with a minimum of 2 peptide spectrum matches (PSMs) in at least one sample that were identified in both experiments were assigned to one of ten categories (see Methods) to separate candidate interactors from other categories that might be co-purified because of obligate interactions (e.g., proteasome or ribosome) or might be less likely to be physiologically relevant (e.g., cytoskeletal proteins). Candidate interactors were then ranked based on the total PSMs for that protein across all samples.
# Centrifugation at 2500 rcf at 4° C. for 5 min pelleted the nuclei, supernatant was discarded, and nuclei resuspended in 1 mL IP buffer pH 7.4 (25 mM Tris-HCl pH 7.5, 175 mM NaCl, 1 mM EDTA, 0.2% NP-40, 5% glycerol) and incubated for 1 hour at 4° C. with rotation then spun at 21000 rcf for 10 minutes at 4° C. to pellet insoluble debris. Protein concentration was determined using the Pierce BCA Protein Assay Kit (ThermoFisher, 23225). An equivalent amount of protein per sample was pre-cleared with Dynabeads Protein G (Invitrogen) bound to mouse IgG (Abcam #131368) for 1 hour at 4° C. with rotation. FLAG-tagged constructs were then immunoprecipitated with Dynabeads Protein G beads coupled to mouse anti-FLAG M2 mAb (Sigma F3165) for 3 hours at 4° C. with rotation. Beads were washed 3× with 1 mL IP buffer and eluted by adding 2× NuPage LDS Sample Buffer (Thermo Fisher, diluted from 4× with PBS) to the beads and heating for 10 minutes at 70° C.
# For LC-MS, anti-FLAG immunoprecipitation was performed with beads cross-linked to the anti-FLAG antibody and the proteins competitively eluted with FLAG peptide. Eluted protein samples were electrophoresed into a NuPage 4-12% Bis-Tris gel, excised, and processed by the Fred Hutchinson Cancer Research Center Proteomics Core. Samples were reduced, alkylated, digested with trypsin, desalted, and run on the Orbitrap Eclipse Tribid Mass Spectrometer (Thermo Fisher). Proteomics data were analyzed using Proteome Discoverer 2.4 against a Uniprot human database that included common contaminants using Sequest HT and Percolator for scoring. […] Proteins that were identified in at least one sample from both independent experiments with at least 2 PSMs in one sample were assigned to one of ten categories: 1, candidates; 2, cytoskeletal associated; 3, cytoskeletal; 4, ribosome/translation associated; 5, proteasome associated; 6, membrane or extracellular; ER, golgi, or vesicle associated; 8, lipid metabolism; 9, chaperones; 10, nuclear import or nuclear membrane associated. The proteins in category 1 were further investigated for interactions with DUX4.
row,Molecule,4. + IFNG mix
1,B1,24
2,B2,2
3,B3,3
4,B4,1

# Same assay, conditions: LC-MS value per protein co-immunoprecipitated with DUX4-CTD construct mL1dL2 in MB135 myoblasts; + Dox + IFNG; kind of count not given
row,Molecule,4. mL1dL2 + Dox + IFNG
1,B1,19
2,B3,18
3,B5,1
4,B6,1
5,B4,1
